# Laboratory results reported in patent publication US20230212266A1 (FRED HUTCHINSON CANCER CENTER, published 2023).
# Experiments:
# [1] = target: T1, SARS-CoV-2 receptor binding domain (RBD) (SARS-CoV-2, UniProt P0DTC2 319-591); experiment: BLI, mAb on anti-human Fc probe, antigen in solution
# [2] = target: T1, SARS-CoV-2 receptor binding domain (RBD); experiment: BLI: mAb on anti-human Fc probe, dipped in the antigen
# [3] = target: T1, SARS-CoV-2 receptor binding domain (RBD); experiment: as above; remark: listed apart in the source
# [4] = target: T1, SARS-CoV-2 receptor binding domain (RBD); experiment: BLI, mAb on anti-human Fc probe, antigen in solution; remark: listed apart in the source
# [5] = target: T1, SARS-CoV-2 receptor binding domain (RBD); experiment: as above; remark: listed apart in the source
# [6] = target: T1, SARS-CoV-2 receptor binding domain (RBD); experiment: as above; remark: listed apart in the source
# [7] = target: T1, SARS-CoV-2 receptor binding domain (RBD); experiment: BLI: mAb on anti-human Fc probe, dipped in the antigen; remark: listed apart in the source
# [8] = target: T1, SARS-CoV-2 receptor binding domain (RBD); experiment: as above; remark: listed apart in the source
# [9] = target: T1, SARS-CoV-2 receptor binding domain (RBD); experiment: as above; remark: listed apart in the source
# [10] = target: T1, SARS-CoV-2 receptor binding domain (RBD); experiment: as above; remark: listed apart in the source
# [11] = target: T1, SARS-CoV-2 receptor binding domain (RBD); experiment: as above; remark: listed apart in the source
# [12] = target: T1, SARS-CoV-2 receptor binding domain (RBD); experiment: as above; remark: listed apart in the source
# [13] = target: T1, SARS-CoV-2 receptor binding domain (RBD); experiment: as above; remark: listed apart in the source
# [14] = target: T1, SARS-CoV-2 receptor binding domain (RBD); experiment: BLI, mAb on anti-human Fc probe, antigen in solution; remark: listed apart in the source
# [15] = target: T1, SARS-CoV-2 receptor binding domain (RBD); experiment: as above; remark: listed apart in the source
# [16] = target: T1, SARS-CoV-2 receptor binding domain (RBD); experiment: BLI: mAb on anti-human Fc probe, dipped in the antigen; remark: listed apart in the source
# [17] = target: T1, SARS-CoV-2 receptor binding domain (RBD); experiment: as above; remark: listed apart in the source
# [18] = target: T1, SARS-CoV-2 receptor binding domain (RBD); experiment: as above; remark: listed apart in the source
binder,measurement,setting,value
"CV21 (antibody, V domains shown, expressed as IgG) VH: not shown VL: EIVLTQSPATLSLSPGERATLSCRASQSVSSYLAWYQQKPGQAPRLLIYDASNRATGIPARFSGSGSGTDFTLTISSLEPEDFAVYYCQQRSNWPLTFGGGTKVEIK",binding result,[1],no binding
"CV2-72 (antibody, V domains shown) VH: EVQLVESGGGLVQPGGSLRLSCAASGFTVSTNYMSWVRQAPGKGLEWVSVIYSGGSTYYVDSVKGRFTISRDNSKNTLYLQMNSLRAEDTAVYYCASTNSGSYSHVFDIWGQGTMVTVSS VL: not shown",binding result,[2],no binding
"CV2-69 (antibody, V domains shown) VH: EVQLLESGGGLVQPGGSLKLSCAASGFTFNSYAMTWVRQAPGKGLEWLSTISGSGGRTYYADSVKGRFAISRDNSKNTVFLQMSTLRAEDTAVYFCARDFYGLESFYPGIDSWGQGTLVTVSS VL: SYELTQPSSVSVFPGQTARITCSGDVLEKKYARWFQQKPGQAPLLVIYKDSERPSGIPERFFGSSSGTTVTLTISGAQVEDEADYYCYSAADNNRGVFGGGTKLTVL",binding result,[3],no binding
"CV17 (antibody, V domains shown, expressed as IgG) VH: not shown VL: QSALTQPASVSGSPGQSITISCTGTSSDVGSYNLVSWYQQHPGKAPKLMIYEGSKRPSGVSNRFSGSKSGNTASLTISGLQAEDEADYYCCSYAGSSTYVFGTGTKVTVL",binding result,[4],no binding
"CV2 (antibody, V domains shown, expressed as IgG) VH: QVQLVESGGGVVQPGRSLRLSCAASGFTFSSYAMHWVRQAPGKGLEWVAVISYDGSNKYYADSVKGRFTISRDNSKNTLYLQMNSLRAEDTAVYYCARVRGSYYLFDYWGQGTLVTVSS VL: not shown",binding result,[5],no binding
"CV15 (antibody, V domains shown, expressed as IgG) VH: EVQLVESGGGLVQPGGSLRLSCAASGFTFSSYWMSWVRQAPGKGLEWVANIKQDGSEKYYVDSVKGRFTISRDNAKNSLYLQMNSLRAEDTAVYYCARDFNSYQLLWYYYYGMDVWGQGTTVTVSS VL: QSALTQPRSVSGSPGQSVTISCTGTSSDVGGYNYVSWYQQHPGKAPKLMIYDVSKRPSGVPDRFSGSKSGNTASLTISGLQAEDEADYYCCSYAGSYTWVFGGGTKLTVL",binding result,[6],no binding
"CV2-74 (antibody, V domains shown) VH: EVQLVQSGAEVKKPGESLRISCKGSGYSFTSYWISWVRQMPGKGLEWMGRIDPSDSYTNYSPSFQGHVTISADKSISTASLQWSSLKASDTAMYYCARQKRDGTTWAFDYWGQGTLVTASS VL: not shown",binding result,[7],no binding
"CV2-70 (antibody, V domains shown) VH: QVQLVQSGAEVKKPGSSVKVSCKASGGTFSSYAITWVRQAPGQGLEWMGGIIPIFGTANYAQKFQGRLTITADDSTSTAYMELSSLKSEDTAVYYCARFRAYDSSGYGPDYWGQGTLVTVSS VL: EIVLTQSPATLSLSPGERATLSCRASQSVSSYLAWYQQKPGQAPRLLIYDASNRATGIPARFSGSGSGTDFTLTISSLEPEDFAVYYCQQRSNWPPSITFGQGTRLEIK",binding result,[8],no binding
"CV2-58 (antibody, V domains shown) VH: QVQLVQSGAEVKKPGSSVKVSCKASGGTFSSYAISWVRQAPGQGLEWMGRIIPILDITNYAQKFQGRVTITADKSTSTAYMELSSLRSEDTAVYYCARGLWRSSIAGLHVPYGMDVWGQGTTVTVSS VL: QSVLTQPPSVSAAPGQKVTISCSGSSSNIGNNYVSWYQQLPGTAPQLLIYDNNKRPSRIPDRFSGSKSGTSATLGITGLQTGDEAVYYCGTWDSSLSAVVFGGGTKLTVL",binding result,[9],no binding
"CV2-59 (antibody, V domains shown) VH: QVQLVQSGAEVKKPGASVKVSCKVSGYTLTELSMHWVRQAPGKGLEWMGGFDPEDGETIYAQKFQGRVTMTEDTSTDTAYMELSSLRSEDTAVYYCATGPTVTTVTNWFDPWGQGTLVTVSS VL: QSVLTQPPSVSAAPGQKVTISCSGSSSNIGNNYVSWYQQLPGTAPKLLIYDNNKRPSGIPDRFSGSKSGTSATLGITGLQTGDEADYYCGTWDSSLSAEVFGTGTKVTVL",binding result,[10],no binding
"CV2-60 (antibody, V domains shown) VH: QVQLVQSGAEVKKPGASVKVSCKASGYNFISYGISWVRQAPGQGLEWMGWISAYNGNTNYAQKLQGRVTMTTDTSTSTAYMELRSLRSDDTAVYYCARVRIFGVVIIVDTAMVLDYWGQGTLVTVSS VL: QSVLTQPPSVSAAPGQKVTISCSGSSSNIGNNYVSWYQQLPGTAPKLLIYENNKRPSGIPDRFSGSKSGTSATLGITGLQTGDEADYYCGTWDSSLSAGVFGGGTKLTVL",binding result,[11],no binding
"CV2-64 (antibody, V domains shown) VH: QLQLQESGPGLVKPSETLSLTCTVSGGSISSSSYYWGWIRQPPGKGLEWIGSIYYSGSTYYNPSLKSRVTISVDTSKNQFSLKLSSVTAADTAVYYCARLSGIFGVVIIPGFFDYWGQGTLVTVSS VL: not shown",binding result,[12],no binding
"CV2-73 (antibody, V domains shown) VH: QVQLQESGPGLVKPSETLSLTCTVSGGSVSSGSYYWSWIRQPPGKGLEWIGYIYYSGSTNYKYSLKSRVTISVDTSKNQFSLKLSSVTAADTAVYYCAREKGGTEWEFNDAFDIWGQGTMVTVSS VL: not shown",binding result,[13],no binding
"CV22 (antibody, V domains shown, expressed as IgG) VH: EVQLVESGGGLVKPGGSLRLSCAASGFTFSSYSMNWVRQAPGKGLEWVSSISSSSSYIYYADSVKGRFTISRDNAKNSLYLQMNSLRAEDTAVYYCARDRESYDILTGYSMEGCFDYWGQGTLVTVSS VL: QLVLTQSPSASASLGASVKLTCTLSSGHSSYAIAWHQQQPEKGPRYLMKLNSDGSHSKGDGIPDRFSGSSSGAERYLTISSLQSEDEADYYCQTWGTGIRVFGGGTKLTVL",binding result,[14],no binding
"CV18 (antibody, V domains shown, expressed as IgG) VH: QVQLVQSGAEVKKPGASVKVSCKVSGYTLTELSMHWVRQAPGKGLEWMGGFDPEDGETIYAQKFQGRVTMTEDTSTDTAYMELSSLRSEDTAVYYCATTSPIVGAITWFDPWGQGTLVTVSS VL: QSVLTQPPSVSAAPGQKVTISCSGSSSNIGNNYVSWYQQLPGTAPKLLIYDNNKRPSGIPDRFSGSKSGTSATLGITGLQTGDEADYYCGTWDSSLSAGPVFGGGTKLTVL",binding result,[15],no binding
"CV2-62 (antibody, V domains shown) VH: EVQLVESGGGLVQPGGSLRLSCAASGFTFSSYEMNWVRQAPGKGLEWVSYISSSGSTIYYADSVKGRFTISRDNAKNSLYLQMNSLRAEDTAVYYCARVPRPPWDDFWSGYLYYFDYWGQGTLVTVSS VL: DIQMTQSPSSLSASVGDRVTITCRASQGISNYLAWYQQKPGKVPKLLIYAASTLQSGVPSRFSGSGSGTDFTLTISSLQPEDVATYYCQKYNSAPPGFTFGPGTKVDIK",binding result,[16],no binding
"CV2-63 (antibody, V domains shown) VH: QVQLVESGGGVVQPGRSLRLSCAASGFTFSSYAMHWVRQAPGKGLEWVAVISYDGDNKYYADSVKGRFTISRDNSKNTLYLQMNSLRAEDTAVYYCARDPTAVTGPFDYWGQGTLVTVSS VL: SYELTQPLSVSVALGQTARITCGGNNIGSKNVHWYQQKPGQAPVLVIYRDSNRPSGIPERFSGSNSGNTATLTISRAQAGDEADYFCQVWDSSTVVFGGGTKLTVL",binding result,[17],no binding
"CV2-67 (antibody, V domains shown) VH: QVQLQESGPGLVKPSETLSLTCTVSGGSISSYYWSWIRQPPGKGLEWIGYIYYSGSTNYNPSLKSRVTISVDTSKNQFSLKLSSVTAADTAVYYCAGTYYDFWSGSTNYYGMDVWGQGTTVTVSS VL: not shown",binding result,[18],no binding
